From patent US20240366722A1 (ACCELERON PHARMA, published 2024) come the findings set out here.

What all share (assay): Biacore, steady-state affinity fit
In general terms: In SPR one partner is held on a chip, and binding of the other changes the refractive index at the surface.

The target in one test is T1, activin A (UniProt P08476 311-426).
T1 construct: also called ActA
T1 sequence (looked up): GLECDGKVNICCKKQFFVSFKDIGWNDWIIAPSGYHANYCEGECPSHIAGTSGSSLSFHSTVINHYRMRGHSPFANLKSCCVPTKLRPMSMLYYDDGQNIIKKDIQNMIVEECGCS
The procedure:
(§1) The affinity of ActRIIB variants and other ActRIIB-hFc proteins for several ligands was evaluated in vitro with a Biacore™ instrument. Kd values were obtained by steady-state affinity fit due to the very rapid association and dissociation of the complex, which prevented accurate determination of kₒₙ and koff.

The target in another test is T2, activin B (UniProt P09529 293-407).
T2 sequence (looked up): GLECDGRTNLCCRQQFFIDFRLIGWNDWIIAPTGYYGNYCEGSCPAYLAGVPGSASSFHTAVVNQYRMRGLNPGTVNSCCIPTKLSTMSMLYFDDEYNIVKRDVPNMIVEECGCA
The procedure: as §1

A further test has as its target T3, GDF11 (UniProt O95390 299-407).
T3 sequence (looked up): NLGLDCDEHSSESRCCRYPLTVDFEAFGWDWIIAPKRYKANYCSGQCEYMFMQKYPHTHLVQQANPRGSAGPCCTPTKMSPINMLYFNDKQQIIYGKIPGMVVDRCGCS
As for the experimental part:
as §1

B1: ActRIIB(L79D 25-131)-hFc (Fc fusion)
chain: ETRECIYYNANWELERTNQSGLERCEGEQDKRLHCYASWRNSSGTIELVKKGCWDDDFNCYDRQECVATEENPQVYFCCCEGNFCNERFTHLPEAGGPEVTYEPPPTGGGTHTCPPCPAPELLGGPSVFLFPPKPKDTLMISRTPRVTCVVVDVSHEDPEVKFNWYVDGVEVHNAKTKPREEQYNSTYRVVSVLTVLHQDWLNGKEYKCKVSNKALPAPIEKTISKAKGQPREPQVYTLPPSREEMTKNQVSLTCLVKGFYPSDIAVEWESNGQPENNYKTTPPVLDSDGSFFLYSKLTVDKSRWQQGNVFSCSVMHEALHNHYTQKSLSLSPGK
notes: Cell purified form without leader
Regarding B1, the Kd (as a rule, the free concentration of one partner at which half of the binding sites on the other are occupied at equilibrium, for simple one-to-one binding) with activin A was determined as 22.9 nM; in the test with activin B, 0.621 nM; in the test with GDF11 it was 0.074 nM.
